According to patent US20200316233A1 (BOARD OF REGENTS OF THE UNIVERISTY OF NEBRASKA, published 2020):
Square brackets hold non-standard residues; d marks the D form. Ends that are not written are not given here.

B1: 3a (peptide)
peptide: KPRRPYIL
modifications: not fully specified; also: N-terminal DOTA, X linker PEG3, Y linker β-Ala, N-Me-Arg, Dmt, Tle building blocks, places not given here
notes: matched control of 2c; also called compound 3a
B2: Ec (peptide)
peptide: KPRRPYIL
modifications: not fully specified; also: DOTA on the peptide, linkers and non-natural residues not given here
B3: 3b (peptide)
peptide: [dS][dS][dS]KPRRPYIL
modifications: not fully specified; also: N-terminal DOTA, X linker Gly-(D)Ser3, N-Me-Arg, Dmt, Tle building blocks, places not given here
notes: matched control of 2f; also called compound 3b

Tests used:
neurotensin receptor-1 [1] = target: T1, neurotensin receptor-1 (human, UniProt P30989 1-418); experiment: competition with 177Lu-N1 on HT-29 cells
T1 construct: whole, on cells; Endogenous receptor on the NTSR1-positive HT-29 human colon cancer cell line; also called NTR1; NTSR1
T1 sequence (P30989 whole entry): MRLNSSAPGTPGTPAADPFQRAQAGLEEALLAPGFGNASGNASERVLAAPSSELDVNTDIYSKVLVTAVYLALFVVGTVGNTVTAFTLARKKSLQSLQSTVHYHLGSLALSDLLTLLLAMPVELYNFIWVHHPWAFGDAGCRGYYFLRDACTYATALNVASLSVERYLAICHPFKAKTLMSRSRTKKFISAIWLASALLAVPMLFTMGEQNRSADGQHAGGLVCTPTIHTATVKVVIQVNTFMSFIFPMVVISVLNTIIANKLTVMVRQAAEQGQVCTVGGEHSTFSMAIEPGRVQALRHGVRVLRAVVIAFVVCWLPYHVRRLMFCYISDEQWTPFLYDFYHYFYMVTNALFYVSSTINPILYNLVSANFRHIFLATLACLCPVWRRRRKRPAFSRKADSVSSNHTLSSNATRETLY
Method: (§1) The IC₅₀ for the unlabeled conjugates binding to the neurotensin receptors was determined using the HT-29 human colon cancer cell line. In these studies, ¹⁷⁷Lu-N1 (¹⁷⁷Lu-DOTA-β-Ala-[N-α-Me⁸, Dmt¹¹, Tle¹²]NT(6-13)), which was synthesized according to published methods (Jia, et al. (2015) Nucl. Med. Biol., 42:816), served as the competitive radioligand for comparing the relative binding affinities of the conjugates. […] At the end of the incubation, the cells were centrifuged, aspirated, and washed with fresh medium (5×500 μL). The cell-associated radioactivity was measured using gamma counter and the IC₅₀ values determined by nonlinear regression using GraphPad Prism 5. All measurements were in biological triplicate.

neurotensin receptor-1 [2] = target: T1, neurotensin receptor-1; experiment: competitive binding to NTR1
Method: as §1

Binder | IC50 (neurotensin receptor-1 [1]) [µM] | IC50 (neurotensin receptor-1 [2]) [µM]
B1 | 0.049 | 
B2 |  | 0.063
B3 | 0.052 | 
